The MegaScale stability set (Tsuboyama et al. 2023)

B1: EHEE_rd4_0726 (parent)
chain: DIEITTNGEEDAKRVIKELQKRNLEYHIEVHGNQWVIKVR

Variants of: B1
Assay: folding stability dG (cDNA display proteolysis); higher = more stable
Settings: PBS, room temperature

Folding stability dG [kcal/mol] of substitutions, site by site:
R14: Y 2.2
V15: A 1.38; C 2.29; E 0.404; F 1.97; G -0.213; H 1.23; I 2.91; K 1.2; L 2.2; M 1.79; N 0.1; P -0.481; Q 0.871; R 0.981; S 0.278; T 1.27; W 2.41; Y 1.99
I16: A 1.54; E 1.34; F 1.02; G 0.895; H -0.379; K 0.043; L 1.83; M 2.04; N -0.729; Q 0.929; R 0.31; S 0.705; T 1.25; V 1.94; W 0.844; Y 0.637
K17: A 2.74; D 2.06; E 2.49; F 2.5; G 1.97; H 2.26; I 2.46; L 2.74; M 2.64; N 2.05; P 0.05; Q 2.46; R 2.7; S 2.31; T 2.15; V 2.29; W 2.36; Y 2.43
E18: A 2.43; C 3.47; D 1.84; F 2.73; G 1.69; H 2.02; I 2.68; K 1.81; L 2.65; M 2.86; N 1.86; P -0.054; Q 2.19; R 2.01; S 2.04; T 1.95; V 2.32; W 3.42; Y 2.87
L19: A 0.721; C 1.59; F 1.38; H -0.603; I 1.56; K -0.438; M 1.32; T -0.334; V 0.98; W 0.45; Y 0.81
Q20: A 2.11; C 1.98; D 2.29; E 2.68; F 1.68; G 1.48; H 1.85; I 2.77; K 2.49; L 2.39; M 2.4; N 2.22; P -0.448; R 2.56; S 1.9; T 2.17; V 2.4; W 1.79; Y 1.64
K21: A 2.54; D 2.3; E 2.44; F 2.25; G 1.86; H 2.02; I 2.19; L 2.65; M 2.51; N 2.21; P 0.042; Q 2.23; R 2.75; S 2.3; T 1.91; V 1.91; W 2.04; Y 2.08
R22: A 2.25; C 2.62; D 1.33; E 1.49; F 2.39; G 1.45; H 2.33; I 1.54; K 2.17; L 2.88; M 2.66; N 1.97; P 0.049; Q 2.45; S 1.76; T 1.51; V 1.45; W 2.65; Y 2.62
N23: A 2.03; C 1.79; D 1.72; E 1.66; F 1.92; G 3.26; H 2.4; I 0.939; K 2.42; L 1.77; M 2.13; P 0.565; Q 2.18; R 2.43; S 1.95; T 1.2; V 1.09; W 1.51; Y 1.67
L24: A 1.7; D 0.415; E 1.01; F 1.81; G 0.458; H 1.13; I 2.46; K 1.67; M 2.19; N 0.681; P -0.114; Q 1.45; R 1.65; S 1.04; T 1.14; V 2.19; W 2.05; Y 1.89
E25: A 2.53; D 2.31; F 2.49; G 2.04; H 2.7; I 2.66; K 2.76; L 2.6; M 2.52; N 2.28; P 2.33; Q 2.6; R 2.58; S 2.67; T 2.66; V 2.58; W 2.52; Y 2.43
Y26: A 1.07; F 2.54; G 0.722; H 0.887; I 1.53; L 1.35; M 1.13; P 0.491; S 0.005; T 0.301; V 1.42; W 1.95
H27: A 2.34; C 2.6; D 2.48; E 2.66; F 2.57; G 1.59; I 2.84; K 2.46; L 2.37; M 2.54; N 2.17; Q 2.45; R 2.59; S 3.05; T 3.34; V 2.86; W 2.69; Y 2.73
I28: A 1.04; E -0.159; F 1.48; H -0.075; K -0.291; L 2.02; M 1.61; Q 0.128; S 0.224; T 1.09; V 2.53; W 1.24; Y 1.48
E29: A 1.71; D 1.56; F 2.27; G 0.743; H 1.78; I 2.32; K 1.66; L 1.91; M 1.93; N 1.41; Q 2; R 1.77; S 2.14; T 2.33; V 2.3; W 1.82; Y 2.26
V30: A 1.41; C 2.23; D 0.526; E 1.16; F 2.06; G 0.63; H 1.94; I 2.72; K 2.36; L 1.86; M 2.01; N 1.57; P 0.866; Q 2.14; R 2.43; S 1.32; T 1.71; W 1.81; Y 2.12
H31: A 1.88; C 2.31; D 1.79; E 1.68; F 2.36; G 0.973; I 2.72; K 2.5; L 2.27; M 2.32; N 2.42; P -0.6; Q 2.29; R 2.97; S 2.12; T 2.17; V 2.61; W 2.08; Y 2.26
G32: A 1.44; D 1.85; E 1.9; F 1.51; H 1.39; I 1.21; K 1.35; L 1.38; M 1.43; N 1.94; P 1; Q 1.59; R 1.09; S 1.21; T 1; V 1.08; W 0.99; Y 1.19
N33: A 2; C 1.96; D 2.5; E 2.16; F 2.06; G 2.34; H 2.03; I 1.66; K 1.92; L 1.94; M 1.97; P 1.78; Q 2.09; R 1.68; S 2.22; T 2.24; V 1.76; W 1.83; Y 1.98
Q34: A 1.92; D 1.68; E 1.85; F 2.65; G 1.42
